Data from the supplement of paper PMC12855868.

B1: library; numbered along this chain (parent)
chain: MAAAGGARLLRAASAVLGGPAGRWLHHAGSRAGSSGLLRNRGPGGSAEASRSLSVSARARSSSEDKITVHFINRDGETLTTKGKVGDSLLDVVVENNLDIDGFGACEGTLACSTCHLIFEDHIYEKLDAITDEENDMLDLAYGLTDRSRLGCQICLTKSMDNMTVRVPETVADARQSIDVGKTS

Variants of: B1
Experiment: scaled log2 fold change in cell abundance, elesclomol vs control (0 = silent mean, 1 = nonsense mean) (scaled log2 ratio); higher = higher viability under elesclomol (loss of FDX1 cuproptosis function)
Settings: glucose 10 mM
[1] = with ABC1 FDX1 KO, elesclomol 5 nM, 14 days
[2] = with HEK293T FDX1 KO, elesclomol 40 nM, 11 days
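Note: variant abundance is its share of total variant reads in each endpoint sample, from next-generation sequencing of the integrated ORF PCR-amplified out of genomic DNA.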

R58F
scaled log2 fold change [1]: -0.105
scaled log2 fold change [2]: -0.229

R58I
scaled log2 fold change [1]: -0.339
scaled log2 fold change [2]: 0.608

R58M
scaled log2 fold change [1]: 0.306
scaled log2 fold change [2]: -0.781

R58V
scaled log2 fold change [1]: 0.434
scaled log2 fold change [2]: 1.47

R58N
scaled log2 fold change [1]: -0.417
scaled log2 fold change [2]: -0.0662

R58D
scaled log2 fold change [1]: -0.139
scaled log2 fold change [2]: -0.303

R58T
scaled log2 fold change [1]: -0.167
scaled log2 fold change [2]: -0.0694

R58C
scaled log2 fold change [1]: 0.0658
scaled log2 fold change [2]: -0.099

R58W
scaled log2 fold change [1]: 0.133
scaled log2 fold change [2]: 0.3

R58Y
scaled log2 fold change [1]: -0.339
scaled log2 fold change [2]: -0.258

R58P
scaled log2 fold change [1]: 0.228
scaled log2 fold change [2]: 0.00503

R58K
scaled log2 fold change [1]: 0.151
scaled log2 fold change [2]: -0.231

R58L
scaled log2 fold change [1]: -0.211
scaled log2 fold change [2]: 0.174

R58E
scaled log2 fold change [1]: -0.288
scaled log2 fold change [2]: -0.142

R58G
scaled log2 fold change [1]: -0.484
scaled log2 fold change [2]: 0.743

R58Q
scaled log2 fold change [1]: 0.0532
scaled log2 fold change [2]: -0.891

R58A
scaled log2 fold change [1]: 0.173
scaled log2 fold change [2]: 0.434

R58S
scaled log2 fold change [1]: 0.12
scaled log2 fold change [2]: -0.815

R58H
scaled log2 fold change [1]: 0.4
scaled log2 fold change [2]: -0.194

S54M
scaled log2 fold change [1]: -0.399
scaled log2 fold change [2]: 0.147

S54W
scaled log2 fold change [1]: 0.208
scaled log2 fold change [2]: -0.341

S54L
scaled log2 fold change [1]: -0.261
scaled log2 fold change [2]: -0.248

S54E
scaled log2 fold change [1]: -0.297
scaled log2 fold change [2]: 0.751

S54K
scaled log2 fold change [1]: -0.175
scaled log2 fold change [2]: -1

S54Y
scaled log2 fold change [1]: -0.0125
scaled log2 fold change [2]: -0.0955

S54R
scaled log2 fold change [1]: 0.322
scaled log2 fold change [2]: -0.406

S54F
scaled log2 fold change [1]: 0.138
scaled log2 fold change [2]: 0.0641

S54N
scaled log2 fold change [1]: -0.135
scaled log2 fold change [2]: -0.939

S54G
scaled log2 fold change [1]: -0.1
scaled log2 fold change [2]: -0.00382

S54H
scaled log2 fold change [1]: -0.807

S54V
scaled log2 fold change [1]: -0.108
scaled log2 fold change [2]: -1.29

S54C
scaled log2 fold change [1]: -0.019
scaled log2 fold change [2]: -0.176

S54Q
scaled log2 fold change [1]: 0.175
scaled log2 fold change [2]: 1.12

S54D
scaled log2 fold change [1]: -0.0274
scaled log2 fold change [2]: -0.0231

S54T
scaled log2 fold change [1]: 0.484
scaled log2 fold change [2]: -0.46

S54A
scaled log2 fold change [1]: 0.19
scaled log2 fold change [2]: -0.116

S54I
scaled log2 fold change [1]: 0.459

S54P
scaled log2 fold change [1]: 0.151
scaled log2 fold change [2]: -0.0299

S63T
scaled log2 fold change [1]: 0.0678
scaled log2 fold change [2]: -0.0954

S63I
scaled log2 fold change [1]: -1.11
scaled log2 fold change [2]: 0.315

S63A
scaled log2 fold change [1]: 0.227
scaled log2 fold change [2]: 0.763

S63N
scaled log2 fold change [1]: -0.0613
scaled log2 fold change [2]: -0.00891

S63K
scaled log2 fold change [1]: 0.173
scaled log2 fold change [2]: -0.352

S63Q
scaled log2 fold change [1]: -0.105
scaled log2 fold change [2]: 0.797

S63G
scaled log2 fold change [1]: 0.283
scaled log2 fold change [2]: 0.000639

S63W
scaled log2 fold change [1]: 0.527
scaled log2 fold change [2]: 0.0977

S63P
scaled log2 fold change [1]: 0.175
scaled log2 fold change [2]: 0.000753

S63R
scaled log2 fold change [1]: 0.598
scaled log2 fold change [2]: -0.598

S63V
scaled log2 fold change [1]: 0.189
scaled log2 fold change [2]: 0.0727

S63L
scaled log2 fold change [1]: 0.0558
scaled log2 fold change [2]: -0.251

S63H
scaled log2 fold change [1]: 0.197
scaled log2 fold change [2]: 0.218

S63F
scaled log2 fold change [1]: 0.0355
scaled log2 fold change [2]: -0.0458

S63Y
scaled log2 fold change [1]: 0.0691
scaled log2 fold change [2]: 0.7

S63E
scaled log2 fold change [1]: 0.199
scaled log2 fold change [2]: -0.451

S63D
scaled log2 fold change [1]: -0.272
scaled log2 fold change [2]: -0.143

S63M
scaled log2 fold change [1]: 0.124
scaled log2 fold change [2]: -0.609

S63C
scaled log2 fold change [1]: 0.302
scaled log2 fold change [2]: -0.446

S62L
scaled log2 fold change [1]: 0.0177
scaled log2 fold change [2]: 0.0918

S62Y
scaled log2 fold change [1]: -0.427

S62K
scaled log2 fold change [1]: 0.104
scaled log2 fold change [2]: 1.13

S62F
scaled log2 fold change [1]: 0.075
scaled log2 fold change [2]: 0.425

S62W
scaled log2 fold change [1]: -0.132

S62N
scaled log2 fold change [1]: 0.0847
scaled log2 fold change [2]: -0.479

S62A
scaled log2 fold change [1]: -0.86
scaled log2 fold change [2]: -0.876

S62Q
scaled log2 fold change [1]: 0.0996
scaled log2 fold change [2]: 0.145

S62M
scaled log2 fold change [1]: 0.0792

S62H
scaled log2 fold change [1]: -0.223
scaled log2 fold change [2]: 0.729

S62D
scaled log2 fold change [1]: 0.269
scaled log2 fold change [2]: 1.05

S62T
scaled log2 fold change [1]: -0.0712
scaled log2 fold change [2]: -0.205

S62G
scaled log2 fold change [1]: -0.00606
scaled log2 fold change [2]: 0.141

S62I
scaled log2 fold change [1]: 0.0619
scaled log2 fold change [2]: -0.0402

S62R
scaled log2 fold change [1]: -0.893
scaled log2 fold change [2]: 0.128

S62E
scaled log2 fold change [1]: 0.0386

S62C
scaled log2 fold change [1]: -0.366
scaled log2 fold change [2]: -0.138

D65V
scaled log2 fold change [1]: 0.161
scaled log2 fold change [2]: -0.27

D65E
scaled log2 fold change [1]: -0.139
scaled log2 fold change [2]: 0.087

D65P
scaled log2 fold change [1]: -0.000175
scaled log2 fold change [2]: 0.99

D65K
scaled log2 fold change [1]: -0.369
scaled log2 fold change [2]: -0.531

D65M
scaled log2 fold change [1]: -0.334
scaled log2 fold change [2]: -0.318

D65H
scaled log2 fold change [1]: 0.192
scaled log2 fold change [2]: 0.0338

D65I
scaled log2 fold change [1]: 0.277

D65C
scaled log2 fold change [1]: 0.243
scaled log2 fold change [2]: -0.327

D65Q
scaled log2 fold change [1]: 0.0546
scaled log2 fold change [2]: 0.293

D65A
scaled log2 fold change [1]: -0.0535
scaled log2 fold change [2]: -0.237

D65F
scaled log2 fold change [1]: -0.512
scaled log2 fold change [2]: -0.119

D65R
scaled log2 fold change [1]: -0.395
scaled log2 fold change [2]: -0.257

D65L
scaled log2 fold change [1]: 0.175
scaled log2 fold change [2]: -0.119

D65S
scaled log2 fold change [1]: -0.464
scaled log2 fold change [2]: 0.216

D65G
scaled log2 fold change [1]: 0.134
scaled log2 fold change [2]: -0.165

D65W
scaled log2 fold change [1]: 0.185
scaled log2 fold change [2]: 0.126

D65T
scaled log2 fold change [1]: -0.192

D65N
scaled log2 fold change [1]: -0.21
scaled log2 fold change [2]: 0.98

A59F
scaled log2 fold change [1]: 0.319
scaled log2 fold change [2]: -0.721

A59W
scaled log2 fold change [1]: 0.216
scaled log2 fold change [2]: 0.283

A59M
scaled log2 fold change [1]: -0.0959
scaled log2 fold change [2]: -0.108

A59H
scaled log2 fold change [1]: -0.614

A59V
scaled log2 fold change [1]: -0.507
scaled log2 fold change [2]: 0.0474

A59G
scaled log2 fold change [1]: -0.424
scaled log2 fold change [2]: -0.916

A59E
scaled log2 fold change [1]: -0.245
scaled log2 fold change [2]: 0.171

A59T
scaled log2 fold change [1]: 0.332
scaled log2 fold change [2]: -0.0311

A59D
scaled log2 fold change [1]: -0.0282
scaled log2 fold change [2]: 0.274

A59L
scaled log2 fold change [1]: -0.434
scaled log2 fold change [2]: 0.562

A59C
scaled log2 fold change [1]: -0.665
scaled log2 fold change [2]: 0.732

A59R
scaled log2 fold change [1]: -0.761
scaled log2 fold change [2]: -0.456

A59Q
scaled log2 fold change [1]: 0.564
scaled log2 fold change [2]: -0.702

A59N
scaled log2 fold change [1]: -0.132
scaled log2 fold change [2]: 0.117

A59I
scaled log2 fold change [1]: 0.202
scaled log2 fold change [2]: 0.473

A59P
scaled log2 fold change [1]: -0.0792

A59S
scaled log2 fold change [1]: 0.217
scaled log2 fold change [2]: 0.732

A59Y
scaled log2 fold change [1]: 0.0878
scaled log2 fold change [2]: -0.306

A59K
scaled log2 fold change [1]: -0.0687
scaled log2 fold change [2]: -0.733

L53N
scaled log2 fold change [1]: 0.146

L53E
scaled log2 fold change [1]: 0.206
scaled log2 fold change [2]: -0.803

L53K
scaled log2 fold change [1]: 0.299
scaled log2 fold change [2]: 0.00452

L53M
scaled log2 fold change [1]: 0.133
scaled log2 fold change [2]: 0.406

L53Q
scaled log2 fold change [1]: -0.164

L53V
scaled log2 fold change [1]: 0.281
scaled log2 fold change [2]: -0.11

L53G
scaled log2 fold change [1]: -0.239
scaled log2 fold change [2]: -1.17
